Entries after “also recorded” stand apart in the source; their conditions may differ.
What was measured:
Format in all cases: cell-based, human
melanocytes [1] = test: Lipid peroxidation in melanocytes (BODIPY 581/591 C11); settings: melanocytes
Experimental: For lipid peroxidation examination, melanocyte cells were seeded in a 6-well plate and treated with IFN-γ the next day. Melanocytes were washed with PBS and incubated with Hanks balanced salt solution (HBSS, Gibco) containing 5 μM BODIPY 581/591 C11 (Invitrogen, D3861) and incubated for 15 minutes at 37° C. in a tissue culture incubator. The cells were resuspended with fresh HBSS and examined with flow cytometry; the data were analyzed with FlowJo.

[2] = test system: CXCR3 expression on CD4+ T cells; test: CXCR3 expression on CD4+ T cells of activated PBMCs (flow cytometry); settings: 3 individual donors
Experimental: Materials and methods: PBMCs from healthy adult donors were isolated from whole blood using Ficoll-Paque density gradient centrifugation. PBMCs were cultured in a humidified 37° C. incubator for 24 hours in RPMI-1640 culture medium supplemented with 5% human serum, and standard antibiotics, 2-ME and HEPES. PBMCs were then seeded at 1×10^6 cells/well with 1 mL fresh culture medium/well in a 24-well plate and stimulated by mixing cells with human T cell TransAct (1:200). Antibodies indicated in the Results were then added and mixed well. After 2 days of culture, PBMCs were collected, washed with PBS three times, re-suspended in culture medium and re-cultured with indicated antibodies for an additional 2 days.
PBMCs were treated as required (see above) and then harvested for flow cytometry antibody staining, using anti-human CD4, anti-human CD8, anti-human CD56 and anti-human CXCR3 antibodies for 30 minutes on ice in the dark. PBMCs were then washed twice with FACS buffer and the expression of CXCR3 determined by flow cytometry using an Attune NxT flow cytometry. Flow cytometry data analysis was performed using FlowJo software.

primary melanocytes = test: Melanocyte cell viability after IFN-γ, chemokines, cell death inhibitors or 2A6Q, Day 2 and Day 7; settings: melanocytes with IFN-γ, up to seven days; listed as 2A6Q
Experimental: To determine cell viability of melanocyte after treatment with IFN-γ, CXCL9, CXCL10, CXCL11, at Day 2, and Day 7, the cells were collected and seeded into 96-well plates. After adhesion, cells were treated with IFN-γ (0, 10, 100 ng/ml) with different compounds: 2A6Q, CXCL9, CXCL10, CXCL11, ROS scavenger (NAC), necroptosis inhibitor (NEC-1), pyroptosis inhibitor (VX-765), apoptosis inhibitor (QVD-OPH), Ferroptosis inhibitor (Liproxstaitin-1, Ferrostatin-1, DFO). Cell viability was measured using a CellTiter-Glo luminescent cell viability assay kit (Promega) according to the manufacturer's protocol. The […] of the final reaction product was measured using a luminometer (SpectraMax® iD3 Multi-Mode Microplate Reader (Molecular Devices). After calculation, the viability of control cells was 100%, and all others were normalized to control and shown as relative cell viability (%). Treatment dosage N-acetylcysteine (NAC; 0.05 mM, 1 mM), Necrostatin-1 (NEC-1; 20 μM, 2 μM), Belnacasan (VX-765; 50 μg/mL, 5 μg/mL), Quinoline-Val Asp-Difluorophenoxymethylketone (QVD-OPH; 10 μM, 2 μM), Liproxstaitin-1 (10 μM, 5 μM, 1 μM, 0.05 μM), Ferrostatin-1 (5 μM, 1 μM), Deferoxamine (DFO; 10 μM, […], 1 μM, 0.05 μM), 2A6Q (10 μg/mL), CXCL9 (10 ng/mL, 10 pg/mL), CXCL10 (10 ng/ml, 10 pg/mL), CXCL11(10 ng/mL, 10 pg/mL).

melanocytes [3] = test: Melanocyte apoptosis, Annexin V / 7AAD flow cytometry; settings: 2A6Q 10 μg/mL
Experimental: Materials and methods: Melanocyte cell apoptosis was detected with Annexin V (BD, 550474) and 7AAD (1 mg/mL, Sigma A9400-1 MG). The cells were detached and resuspended with […] binding buffer (BD, 556454) containing Annexin V and 7AAD for 15 min at room temperature in the dark. Before analysis, cells were added to a […] binding buffer and immediately analyzed a on a flow cytometer (Verse BD).

B1: EI-001: human monoclonal anti-IFN-γ neutralizing antibody; VH SEQ ID NO: 165, VL SEQ ID NO: 113; N76Q removes VH glycosylation site (antibody, listed as Homo sapiens, V domains shown)
VH: EVQLVESGGGLVKPGDSLTVSCVASGFTFSNYFIHWVRQAPGKGLEWVATISGRTKYMFYSDSLRGRFTVSRDNAQNSVYLHMSSLRGEDTALYYCVRGYDHSDSNSAADLLHWGRGTLVTVSS
VL: NFMLTQPLSVSGYPGKTIVISCVRSSGSVASHYVQWFQQRPGSAPAMVIYEDSHRPSGIPDRFSGSVDASSNSASLTISGLKTEDEADYFCQSYYGNNQVLFGGGTKLTVL
modifications: Recombinant variant antibody sequence
notes: human monoclonal anti-IFN-γ neutralizing antibody; N76Q removes VH glycosylation site
reversal of IFN-γ induced lipid peroxidation (melanocytes [1]): reverses | IC50 of EI-001 to inhibit CXCR3 expression on CD4+ T cells [2]: 0.279 to 1.313 µg/mL | rescue of IFN-γ induced melanocyte cell death (cell viability) (primary melanocytes): more profound than all other cell death inhibitors; also recorded: rescue cell viability of melanocyte in a time-dependent manner | reversal of IFN-γ induced early phase apoptosis (melanocytes [3]): managed to reverse the apoptosis; also recorded: reverses

Reference: patent US20250320288A1, “METHOD OF TREATING VITILIGO WITH INTERFERON-GAMMA ANTIBODY” (Elixiron Immunotherapeutics (Hong Kong), priority 2022, published 2025)
